From patent US20170022277A1 (NATIONAL RESEARCH COUNCIL OF CANADA, published 2017) come the findings set out here.

B1: IGF1R-4 VHH (VHH)
VHH: QVKLEESGGGLVQAGGSLRLSCEVSGGTVSPTAMGWFRQAPGKEREFVGHITWSRGTTRVASSVKDRFTISRDSAKNTVYLQMNSLKSEDTAVYYCAASTFLRILPEESAYTYWGQGTQVTVSS
notes: Llama VHH, monomeric; Expressed from pSJF2H in TG1 E. coli and purified by IMAC; also called anti-IGF1R VHH IGF1R-4
B2: IGF1R-4_H4 (VHH)
VHH: QVQLVESGGGLVQPGGSLRLSCAVSGGTVSPTAMGWFRQAPGKGLEFVGHITWSRGTTRYASSVKGRFTISRDSSKNTVYLQMNSLRAEDTAVYYCAASTFLRILPEESAYTYWGQGTLVTVSS
notes: Humanized variant of IGF1R-4; expressed from pSJF2H in E. coli and purified by IMAC; any vector tag is not described
B3: IGF1R-4_H5 (VHH)
VHH: QVQLVESGGGLVQPGGSLRLSCAVSGGTVSPTAMGWFRQAPGKEREFVGHITWSRGTTRYASSVKGRFTISRDSSKNTVYLQMNSLRAEDTAVYYCAASTFLRILPEESAYTYWGQGTLVTVSS
notes: as for B2
B4: IGF1R-4_H2 (VHH)
VHH: QVQLVESGGGLVQPGGSLRLSCAVSGGTVSPTAMGWVRQAPGKGLEWVGHITWSRGTTRYASSVKGRFTISRDNSKNTVYLQMNSLRAEDTAVYYCAASTFLRILPEESAYTYWGQGTLVTVSS
notes: as for B2
B5: IGF1R-4_H3 (VHH)
VHH: QVQLVESGGGLVQPGGSLRLSCAVSGGTVSPTAMGWFRQAPGKGLEFVGHITWSRGTTRYASSVKGRFTISRDNSKNTVYLQMNSLRAEDTAVYYCAASTFLRILPEESAYTYWGQGTLVTVSS
notes: as for B2

One assay deals with T1, recombinant human Insulin Receptor (R&D systems) (human, UniProt P06213-2 28-944, limits assumed).
T1 construct: extracellular domain; Bought protein; About 4000 RU immobilized on a CM5 chip; also called IR; recombinant extracellular portion of the human Insulin Receptor
T1 sequence (P06213 other isoform, or with tags, fused parts or gaps limits assumed): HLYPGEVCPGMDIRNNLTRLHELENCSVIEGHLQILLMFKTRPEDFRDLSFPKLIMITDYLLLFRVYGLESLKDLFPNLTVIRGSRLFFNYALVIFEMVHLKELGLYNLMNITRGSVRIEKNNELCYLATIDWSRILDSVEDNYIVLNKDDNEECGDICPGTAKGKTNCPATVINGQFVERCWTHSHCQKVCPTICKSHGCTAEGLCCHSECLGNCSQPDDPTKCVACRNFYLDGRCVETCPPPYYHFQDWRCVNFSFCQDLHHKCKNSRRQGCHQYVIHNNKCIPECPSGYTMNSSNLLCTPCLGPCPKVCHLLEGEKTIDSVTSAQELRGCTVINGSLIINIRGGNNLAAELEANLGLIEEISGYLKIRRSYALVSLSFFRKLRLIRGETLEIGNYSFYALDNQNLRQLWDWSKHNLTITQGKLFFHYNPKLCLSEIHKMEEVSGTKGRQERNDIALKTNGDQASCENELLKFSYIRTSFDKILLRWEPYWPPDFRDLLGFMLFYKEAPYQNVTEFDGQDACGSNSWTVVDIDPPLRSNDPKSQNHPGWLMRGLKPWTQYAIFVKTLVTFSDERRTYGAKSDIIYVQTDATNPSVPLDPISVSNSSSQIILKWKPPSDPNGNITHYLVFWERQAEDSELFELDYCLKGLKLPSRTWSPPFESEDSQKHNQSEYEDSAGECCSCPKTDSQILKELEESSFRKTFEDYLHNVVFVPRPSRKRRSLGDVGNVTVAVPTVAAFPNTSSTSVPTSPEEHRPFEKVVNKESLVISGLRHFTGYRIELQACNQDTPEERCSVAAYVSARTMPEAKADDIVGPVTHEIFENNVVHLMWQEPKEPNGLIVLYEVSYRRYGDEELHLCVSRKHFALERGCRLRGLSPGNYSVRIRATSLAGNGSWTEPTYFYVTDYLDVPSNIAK
The assay is described as follows: SPR, IGF1R-4 VHH (0.5 - 50nM) over immobilized recombinant human Insulin Receptor. (Surface plasmon resonance follows binding to a sensor surface in real time, without labels.)
On to B1, for which the binding result is recorded as “no binding (tested: 50 nM)”.

The target of the next assay is T2, recombinant human IGF1R extracellular fragment IGF1R^933-His (human, UniProt P08069 31-933).
T2 construct: It holds the full alpha subunit, the furin site RKRR and most of the extracellular part of the beta subunit; Amine-coupled to a CM5 chip for SPR; also called recombinant extracellular portion of the human IGF1R fragment; not shown: His tag from pCDN4/myc-His vector
T2 sequence (P08069 31-933): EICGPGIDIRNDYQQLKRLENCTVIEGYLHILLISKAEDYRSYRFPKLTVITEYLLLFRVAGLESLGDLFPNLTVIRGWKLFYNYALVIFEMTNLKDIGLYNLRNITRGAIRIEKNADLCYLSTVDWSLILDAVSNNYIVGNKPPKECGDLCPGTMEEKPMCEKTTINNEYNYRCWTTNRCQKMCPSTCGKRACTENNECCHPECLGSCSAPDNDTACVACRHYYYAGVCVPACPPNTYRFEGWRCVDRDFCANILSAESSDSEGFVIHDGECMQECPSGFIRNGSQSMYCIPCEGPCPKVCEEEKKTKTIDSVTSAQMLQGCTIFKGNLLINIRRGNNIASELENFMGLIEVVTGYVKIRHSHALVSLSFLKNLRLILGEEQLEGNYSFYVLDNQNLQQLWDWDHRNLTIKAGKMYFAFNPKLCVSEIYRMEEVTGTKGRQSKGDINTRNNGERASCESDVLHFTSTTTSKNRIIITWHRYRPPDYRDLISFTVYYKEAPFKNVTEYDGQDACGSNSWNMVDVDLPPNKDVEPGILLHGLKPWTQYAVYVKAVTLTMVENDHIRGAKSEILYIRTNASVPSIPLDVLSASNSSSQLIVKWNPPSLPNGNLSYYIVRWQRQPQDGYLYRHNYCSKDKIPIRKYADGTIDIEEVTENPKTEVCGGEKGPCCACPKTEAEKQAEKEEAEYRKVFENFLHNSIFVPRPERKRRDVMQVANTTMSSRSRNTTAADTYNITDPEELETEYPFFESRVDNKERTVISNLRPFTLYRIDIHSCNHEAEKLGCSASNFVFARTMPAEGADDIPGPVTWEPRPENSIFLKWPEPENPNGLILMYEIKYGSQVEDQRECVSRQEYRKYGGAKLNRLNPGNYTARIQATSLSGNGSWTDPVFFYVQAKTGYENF
Kind of assay: SPR (BIACORE 3000), human IGF1R immobilized on CM5, 1:1 model. How it is done: Approximately 3000 Resonance Units (RU) of recombinant human IGF1R were immobilized on a Sensor chip CM5. Immobilization was carried out at a concentration of 10 μg/ml in 10 mM acetate at pH4.0 using the amine coupling kit supplied by the manufacturer. The remaining binding sites were blocked with 1 M ethanolamine pH 8.5. An ethanolamine blocked surface was used as a reference surface. For the binding studies, analyses were carried out at 25° C. in 10 mM HEPES, pH7.4 containing 150 mM NaCl, 3 mM EDTA and 0.005% surfactant P20 (Polyoxyethylenesorbitan; GE Healthcare). […] Surfaces were regenerated with 10 mM glycine pH 2.0 with a contact time of 24 seconds. Data were analyzed with BIAevaluation 4.1 software (GE Healthcare).
The term Kd denotes the constant that tells how readily two partners part at equilibrium. What is called koff is a measure of how fast the partners let go of each other. For B2, the Kd amounted to 0.45 nM and the koff was found to be 0.00039 s⁻¹.

Take B1: the Kd turned out to be 0.32 nM and the koff was determined as 0.00029 s⁻¹.

In the case of B3, the Kd was determined as 0.52 nM and the koff amounted to 0.00046 s⁻¹.

Consider B4, for which the Kd was found to be 1.07 nM and the koff came out at 0.00061 s⁻¹.

For B5, the Kd came out at 0.39 nM and the koff worked out at 0.00034 s⁻¹.
